This is an account of results in publication PMC11026473.

This assay has as its target myc-Xbra (UniProt P24781). Nature of the assay: co-immunoprecipitation (IP: Flag, WB: Myc), band intensity quantified. As to conditions: Xenopus embryos injected with flag-smad1 constructs and myc-xbra; parent: est. 1.0; read off a plot.
Chain of UniProt P24781 (P24781 whole entry): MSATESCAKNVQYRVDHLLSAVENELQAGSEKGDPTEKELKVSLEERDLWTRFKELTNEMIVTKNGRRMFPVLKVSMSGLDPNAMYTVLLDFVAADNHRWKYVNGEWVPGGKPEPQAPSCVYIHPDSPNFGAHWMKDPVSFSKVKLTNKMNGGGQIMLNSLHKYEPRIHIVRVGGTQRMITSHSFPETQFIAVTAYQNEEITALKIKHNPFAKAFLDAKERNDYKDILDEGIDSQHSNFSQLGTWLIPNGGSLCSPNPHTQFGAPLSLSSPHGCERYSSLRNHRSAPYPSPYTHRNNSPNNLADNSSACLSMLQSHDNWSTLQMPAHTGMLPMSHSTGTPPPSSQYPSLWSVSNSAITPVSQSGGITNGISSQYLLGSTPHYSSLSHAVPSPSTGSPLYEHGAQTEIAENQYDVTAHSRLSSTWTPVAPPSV

Regarding “flag-Smad1 (WT) (from UniProt Q15797) S187A; S196A; S206A; S214A; C-terminal SSXS to DDXD (4SA3SD)”, the ratio to parent stood at 0.65.

With “flag-Smad1 (WT) (from UniProt Q15797) S187D; S196D; S206D; S214D; C-terminal SSXS to DDXD (4SD3SD)”, the ratio to parent is 4.1.
